Assay results published in patent publication US20260125454A1 (SHANGHAI JUNSHI BIOSCIENCES, published 2026).
Bridges are numbered along the chain shown (N, C = ends). Where no end group is shown, it is not given here. The star is where a group is joined. Biotin = O=C1N[C@H]2[C@H](CS[C@H]2CCCCC(=O)*)N1

Experiments:
Biotin-1-19 polypeptide = target: T1, Biotin-1-19 polypeptide (human, disulfide 2-7; not fully specified (N-terminus); printed as Biotin-Linker(G5)-ACDTATCVTHRLAGLLSRS; ends not checked; also: biotin, position not given here); experiment: ELISA, transfection supernatant, biotin-CGRP(1-19) on streptavidin
T1 construct: also called fragment CGRP (1-19); truncated (1-19) CGRP
T1 peptide: ACDTATCVTHRLAGLLSRS
Procedure: Streptavidin was diluted to 0.5 μg/mL by using PBS (Hyclone) and added into a plate at 100 μL/well. The plate was incubated in a thermostat incubator at 37° C. for 90 min and then washed. 2% BSA was added to the plate at 200 μL/well, and the plate was incubated in the thermostat incubator at 37° C. for 90 min and washed. Biotin-1-19 polypeptide was diluted to 2.0 μg/mL with 2% BSA and added into the plate at 100 μL/well, and the plate was incubated in the thermostat incubator at 37° C. for 60 min. The reference antibody (Lily) was diluted to 2500 ng/ml with a diluent (2% BSA) and then serially 4-fold diluted to 0.15 ng/ml. For chimeric antibodies, the stock solution was diluted. All the chimeric antibody solutions and the reference antibody solution were added into plates at 80 μL/well, and the plates were incubated in a thermostat incubator at 37° C. for 60 min and washed. An HRP-conjugated mouse anti-human antibody IgG4 (manufacturer: Southern Biotech, Cat. No. 9200-05; Fc specificity) was diluted 5000-fold with 2% BSA and added into the plates at 100 µL/well, and the plates were incubated in the thermostat incubator at 37° C. for 60 min and washed. 0.1 mg/mL chromogenic reagent TMB was carefully added at 100 μL/well to avoid bubbles, and the system was incubated at 37° C. for 10 min away from light for chromogenic reaction. Finally, a 2 M hydrochloric acid solution was added at 100 μL/well to stop the reaction while avoiding bubbles, and the plates were read on a microplate reader within 10 min (the detection wavelength was 450 nm; the reference wavelength was 620 nm).

Biotin-huCGRPaSA = target: T2, Biotin-huCGRPaSA (human, not fully specified; biotin (position not given)); experiment: ELISA, transfection supernatant, biotin-CGRP on streptavidin
T2 construct: exact construct ('aSA') not explained; also called Biotin CGRPaSA; full-length (1-37) CGRP
T2 peptide: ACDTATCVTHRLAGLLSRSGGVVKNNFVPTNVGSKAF
Procedure: Streptavidin was diluted to 0.5 μg/mL by using PBS (Hyclone) and added into a plate at 100 μL/well. The plate was incubated in a thermostat incubator at 37° C. for 90 min and then washed. 2% BSA was added to the plate at 200 μL/well, and the plate was incubated in the thermostat incubator at 37° C. for 90 min and washed. Biotin-huCGRPaSA was diluted to 2.0 μg/mL with 2% BSA and added into the plate at 100 μL/well, and the plate was incubated in the thermostat incubator at 37° C. for 60 min. The reference antibody (47-RM) was diluted to 2500 ng/ml with a diluent (2% BSA) and serially 4-fold diluted to 0.15 ng/mL, and the chimeric antibodies were diluted with a cell supernatant stock solution. All the chimeric antibody solutions and the reference antibody solution were added into plates at 80 μL/well, and the plates were incubated in a thermostat incubator at 37° C. for 60 min and washed. An HRP-conjugated mouse anti-human antibody IgG4 (manufacturer: Southern Biotech, Cat. No. 9200-05; Fc specificity) was diluted 5000-fold with 2% BSA and added into the plates at 100 μL/well, and the plates were incubated in the thermostat incubator at 37° C. for 60 min and washed. 0.1 mg/mL chromogenic reagent TMB was carefully added at 100 μL/well to avoid bubbles, and the system was incubated at 37° C. for 10 min away from light for chromogenic reaction. Finally, a 2 M hydrochloric acid solution was added at 100 μL/well to stop the reaction while avoiding bubbles, and the plates were read on a microplate reader within 10 min (the detection wavelength was 450 nm; the reference wavelength was 620 nm).

hCGRP(1-37) = target: T3, hCGRP(1-37) (human, N-terminal biotin; C-terminal phenylalanine amide (F-NH2); CYS residues at positions 7 and 12 theoretically form 1 intrachain disulfide bond); experiment: BLI (Octet), biotin-peptide on SA probe, 45 nM Fab
T3 construct: also called polypeptide 1-37; full-length hCGRP (1-37) polypeptide
T3 peptide: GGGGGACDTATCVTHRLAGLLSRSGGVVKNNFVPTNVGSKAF
Procedure: (§1) The kinetic parameters of C245 Fab (Fab monomer fragments derived from antibody C245) binding to six synthetic human CGRP alpha polypeptide fragments (polypeptide 1-13, polypeptide 1-19, polypeptide 1-37, polypeptide 8-19, polypeptide 8-26, and polypeptide 13-24) were determined on an Octet RBD 96e system. Human CGRP synthetic polypeptide fragments were immobilized on the surfaces of SA bioprobes (Sartorius, Cat. No. 18-5019) at the following concentrations: 46.5 nM for hCGRP (1-13), 8.5 nM for CGRP (1-19), 15.5 nM for hCGRP (1-37), 8.5 nM for hCGRP (8-19), 15.5 nM for hCGRP (8-26), and 46.5 nM for hCGRP (13-24). The immobilized synthetic human CGRP polypeptide fragments were bound to 45 nM of C245 Fab and the binding dissociation curves were fitted using analytical software.
(§2) The kinetic parameters of hu224 Fab (Fab monomer fragments derived from humanized antibody hu224) binding to four synthetic human CGRP alpha polypeptide fragments (polypeptide 1-13, polypeptide 1-19, polypeptide 1-37, and polypeptide 8-19) were determined on an Octet RBD 96e system. Human CGRP synthetic polypeptide fragments were immobilized on the surfaces of SA bioprobes (Sartorius, Cat. No. 18-5019) at the following concentrations: 8.5 nM for CGRP (1-19), 15.5 nM for hCGRP (1-37), 10 nM for hCGRP (8-19), and 15.5 nM for hCGRP (8-26). The immobilized synthetic human CGRP polypeptide fragments were bound to 45 nM of hu224 Fab and the binding dissociation curves were fitted using analytical software.

hCGRP(1-19) = target: T4, hCGRP(1-19) (human, N-terminal biotin; CYS residues at positions 7 and 12 theoretically form 1 intrachain disulfide bond); experiment: BLI (Octet), biotin-peptide on SA probe, 45 nM Fab
T4 construct: also called polypeptide 1-19
T4 peptide: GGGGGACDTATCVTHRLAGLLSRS
Procedure: as §1, §2

hCGRP(8-26) = target: T5, hCGRP(8-26) (human, N-terminal biotin); experiment: BLI (Octet), biotin-peptide on SA probe, 45 nM Fab
T5 construct: also called polypeptide 8-26
T5 peptide: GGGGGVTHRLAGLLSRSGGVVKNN
Procedure: as §1, §2

hCGRP(8-19) = target: T6, hCGRP(8-19) (human); experiment: BLI (Octet), biotin-peptide on SA probe, 45 nM Fab
T6 construct: also called polypeptide 8-19
T6 peptide: Biotin-GGGGGVTHRLAGLLSRS
Procedure: as §1, §2

B1: C235 (antibody, V domains shown)
VH: EVQLQQSGPELVKPGASMKISCKASGYSFTGYTMNWVKQSHGNNLEWIGLINPYIGNTHYNQKFKDKATFTVDRSSSTAYMALLSLTSEDSAVYYCARELDSGFDYWGQGTTLTVSS
VL: DIVLTQSPASLAVSLGQRATISCKASQNIDFDGYAYMNWYQHKPGQPPRVLIYSVFNLESGIPARFSGSGSGTDFTLNIHPVEEEDAATYYCQQSHEVPYTFGGGTNLEIK
notes: 3C1-HC + 1F5-LC1; chimeric, human constant regions
OD value (Biotin-1-19 polypeptide): 2.84 OD

B2: C246 (antibody, V domains shown)
VH: EVQLQQSGPELVKPGASMKISCKASGYSFTGYTMNWVKQSHGNNLEWIGLINPYIGNTHYNQKFKDKATFTVDRSSSTAYMALLSLTSEDSAVYYCARELDSGFDYWGQGTTLTVSS
VL: DIVLTQSPASLAVSLGQRATISCKASQNIDYDGYTYLNWYQQKPGQPPKVLIYSIFNLESGIPARFSGSGSGTDFTLNIHPVEEEDAATYYCQQSNEVPYTFGGGTKLEIK
notes: 3C1-HC + 3E5-LC; chimeric, human constant regions
OD value (Biotin-1-19 polypeptide): 0.91 OD

B3: C253 (antibody, V domains shown)
VH: EVQLQQSGPELVKPGASMKISCKASGYSFTGYTMNWVKQSHGNNLEWIGLINPYIGNTHYNQKFKDKATFTVDRSSSTAYMALLSLTSEDSAVYYCARELDSGFDYWGQGTTLTVSS
VL: DIVLTQSPDSLAVSLGQRATISCKASQNIDYGGYSYMNWYQQKPGQPPKVLIYSVFNLESGIPARFSGSGSGTDFTLTIHPVEEEDAATYYCQQSNEAPYTFGGGTKLEIR
notes: 3C1-HC + 3H10-LC2; chimeric, human constant regions
OD value (Biotin-1-19 polypeptide): 2.94 OD | OD value (Biotin-huCGRPaSA): 2.46 OD

B4: hu224 Fab (Fab, V domains shown)
VH: QVQLVQSGAEVKKPGASVKVSCKASGYSFTGYTMNWVRQAPGQRLEWMGLINPYIGNTHYNQKFKDRVTFTVDRSSSTAYMELSSLRSEDTAVYYCARELDSGFDYWGQGTLVTVSS
VL: DVVMTQSPDSLAVSLGERATINCRSSQNIVHSNGDTYLEWYQQKPGQPPKLLIYKVSNRFSGVPDRFSGSGSGTDFTLTISSLQAEDVAVYYCYQGSHVPWTFGQGTKLEIK
notes: also called Fab monomer fragments derived from humanized antibody hu224
Kd (hCGRP(1-37)): 0.288 nM | koff (hCGRP(1-37)): 7.97e-05 s⁻¹ | kon (hCGRP(1-37)): 277000 M⁻¹ s⁻¹ | Kd (hCGRP(1-19)): 0.0823 nM | koff (hCGRP(1-19)): 2.62e-05 s⁻¹ | kon (hCGRP(1-19)): 318000 M⁻¹ s⁻¹ | Kd (hCGRP(8-26)): 1.18 nM | koff (hCGRP(8-26)): 0.000374 s⁻¹ | kon (hCGRP(8-26)): 316000 M⁻¹ s⁻¹ | Kd (hCGRP(8-19)): 0.445 nM | koff (hCGRP(8-19)): 0.000151 s⁻¹ | kon (hCGRP(8-19)): 341000 M⁻¹ s⁻¹
